Experimental data taken from US20200262930A1 (YALE UNIVERSITY, published 2020).
Substitutions are numbered along the chain they refer to.

B1: H1-L1 (humanized anti-YKL-40 antibody) (antibody, V domains shown)
VH: QIQLVQSGSELKKPGASVKISCKASGYTFTNYGMNWVRQAPGQGLEWMGWINTYTGEPTYADDFKGRFVFSLDTSVSTAYLQISSLKAEDTSVYFCARLGYGKFYVMDYWGQGTSVTVSS
VL: DVVMTQSPLSLPVTLGQPASISCRSSQSLVHSNGNTYLNWYQQRPGQSPRLLIYKVSNRFSGVPDRFSGSGSGTDFTLKISRVEAEDVGVYFCSQSTHVTWTFGGGTKLEIK
notes: Humanized, kappa light chain, human IgG (detected with goat anti-human IgG-HRP; the PK assay uses an anti-IgG1 capture antibody); also called anti-YKL-40 H1-L1
B2: H4-L1 (humanized anti-YKL-40 antibody) (antibody, V domains shown)
VH: B1 VH with E46K
VL: B1 VL
notes: Humanized, human IgG (detected with goat anti-human IgG-HRP)
B3: H11-L1 (humanized anti-YKL-40 antibody) (antibody, V domains shown)
VH: QIQLVQSGPEVKQPGASVKISCKASGYTFTNYGMNWVKQAPGQGLKWMGWINTYTGEPTYAQGFTGRFVFSLDTSASTAYLQISSLKAEDMSTYFCARLGYGKFYVMDYWGQGTSVTVSS
VL: B1 VL
notes: Humanized, human IgG
B4: H11-L5 (humanized anti-YKL-40 antibody) (antibody, V domains shown)
VH: B3 VH
VL: B1 VL with V2I, S7T, P12S, L15P, R24K, N39H, Q42L, R44K, R50Q, F92Y
notes: Humanized variant
B5: H2-L1 (humanized anti-YKL-40 antibody) (antibody, V domains shown)
VH: B1 VH with D62Q, D63G, K65T
VL: B1 VL
notes: Humanized variant
B6: H12-L8 (humanized anti-YKL-40 antibody) (antibody, V domains shown)
VH: B3 VH with T28S, N31T, K46E, Q62D, G63D, T65K
VL: B1 VL with N39H, F92Y
notes: Humanized variant

Target: T1, primate (Cynomolgus monkey) CHI3L1/YKL-40 (Cynomolgus monkey, UniProt A0A7N9DGM0 12-373)
T1 construct: also called primate CHI3L1/YKL-40
Test: titration ELISA

fold difference in affinity among species (human highest) [fold] | Binder
≤ 2 | B1
≤ 2 | B2
≤ 2 | B3

Target: T2, murine BRP-39 (murine homologue of CHI3L1/YKL-40) (murine, UniProt Q61362 30-389, limits assumed)
T2 construct: also called murine YKL-40
Test: titration ELISA

T2 sequence (Q61362 30-389 limits assumed): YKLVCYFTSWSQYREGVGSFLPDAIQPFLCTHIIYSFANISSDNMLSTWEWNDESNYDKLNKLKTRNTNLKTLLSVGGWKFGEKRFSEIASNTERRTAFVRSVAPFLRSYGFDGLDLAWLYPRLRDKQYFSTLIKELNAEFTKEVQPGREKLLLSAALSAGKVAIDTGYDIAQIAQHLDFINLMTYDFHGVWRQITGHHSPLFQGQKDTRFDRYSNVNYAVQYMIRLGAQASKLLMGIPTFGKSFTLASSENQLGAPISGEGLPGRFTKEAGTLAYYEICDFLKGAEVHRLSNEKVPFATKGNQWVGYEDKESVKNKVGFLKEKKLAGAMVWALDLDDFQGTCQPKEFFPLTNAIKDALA

fold difference in affinity among species (human highest) [fold] | Binder
≤ 2 | B1
≤ 2 | B2
≤ 2 | B3

Target: T2, murine BRP-39 (murine homologue of …)
Test: titration ELISA against murine BRP-39

binding result | Binder
binds | B4
binds | B5
binds | B6

Target: T3, human CHI3L1/YKL-40 (human, UniProt P36222 22-383)
T3 construct: also called human YKL-40
Test: titration ELISA against human YKL-40

T3 sequence (P36222 22-383 limits assumed): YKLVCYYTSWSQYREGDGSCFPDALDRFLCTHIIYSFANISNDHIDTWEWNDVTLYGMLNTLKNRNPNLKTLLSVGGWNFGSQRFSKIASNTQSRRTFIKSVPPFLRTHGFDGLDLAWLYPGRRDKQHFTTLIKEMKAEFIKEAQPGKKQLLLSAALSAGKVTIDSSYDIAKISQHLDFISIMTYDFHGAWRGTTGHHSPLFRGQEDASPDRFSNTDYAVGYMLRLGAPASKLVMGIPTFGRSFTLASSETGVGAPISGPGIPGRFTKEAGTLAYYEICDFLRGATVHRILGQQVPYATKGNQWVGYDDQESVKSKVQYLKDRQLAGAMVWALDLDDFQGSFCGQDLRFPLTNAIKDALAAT

binding result | Binder
binds | B1
binds | B4
binds | B2
binds | B5
binds | B3
binds | B6
